Test results from the RNAGym collection of RNA variant scans (doi:10.1073/pnas.2313332121).
Fewer inactive variants are shown than the library holds.

B1: TPR 5TU (parent)
chain: GGAUCUUCUCGAUCUAACAAAAAAGACAAAUCUGCCACAAAGCUUGAGAGCAUCUUCGGAUGCAGAGGCGGCAGCCUUCGGUGGCGCGAUAGCGCCAACGUUCUCAACUAUGACACGCAAAACGCGUGCUCCGUUGAAUGGAGUUUAUCAUG

Variants of: B1
Assay: polymerase ribozyme fitness, log enrichment relative to wild type (log ratio); higher = more active; in vitro selection for triplet polymerase activity
Summary of the method: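 Fitness compares each genotype's enrichment to that of the wild type on a logarithmic scale, averaging replicates with inverse-variance weights. The logarithm is base 2. Enrichment came from Illumina sequencing of input and output libraries after one triplicate round of in vitro selection, which included frozen incubation at −7 °C, of PCR-built, transcribed mutant libraries of each subunit of a heterodimeric triplet polymerase ribozyme. Only genotypes with ≥10 input reads and ≥1 read per output were kept.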

A30C A52C C85U C99A A115U C131U G141C and A30C G48C G67A A91U G100U cannot be ordered by “polymerase ribozyme fitness (log ratio)” value: at most -4.2 for the first, at most -4.2 for the second.

A29U A52U U53A G80A C87A G128U U146C and A29G A47U A49U G94A C131U cannot be ordered by “polymerase ribozyme fitness (log ratio)” value: at most -4.2 for the first, at most -4.2 for the second.

A29G C93G A115U C116G C149G and A29G U111A cannot be ordered by “polymerase ribozyme fitness (log ratio)” value: at most -4.2 for the first, at most -4.2 for the second.

First: A29G C35U U145C
Second: A30G G71A C85G G141C
The “polymerase ribozyme fitness (log ratio)” value of the first is higher: -3.89 for the first, at most -4.2 for the second.

U31A A39G A40U A41C G48A C95U C131G U148A and A29U G59A G83C C125U cannot be ordered by “polymerase ribozyme fitness (log ratio)” value: at most -4.2 for the first, at most -4.2 for the second.

A30G A91G and A30G C54U C76G A91C cannot be ordered by “polymerase ribozyme fitness (log ratio)” value: at most -4.2 for the first, at most -4.2 for the second.

First: A30C A64U G65A G70A G84U A91C C103U G136C C149G
Second: A30U C95U
The “polymerase ribozyme fitness (log ratio)” value of the first is lower: at most -4.2 for the first, -3.31 for the second.

A30U C95G and A30C C85U are within 0.2 log units of each other in “polymerase ribozyme fitness (log ratio)” value: -3.94 for the first, -4.09 for the second.

Compared with A30G U45A A106C U135G, A29U C36U is lower in “polymerase ribozyme fitness (log ratio)” value: -3.85 for the first, at most -4.2 for the second.

Going from A30C C75G C103G to A30G A47U A64G G94A, the “polymerase ribozyme fitness (log ratio)” value rises from at most -4.2 to -3.57.

A30G G42A and A29G C51U G62A G84A U139G cannot be ordered by “polymerase ribozyme fitness (log ratio)” value: at most -4.2 for the first, at most -4.2 for the second.

A29U C76G G84U C96A A122U U144A and A30G U56A C85G C132U cannot be ordered by “polymerase ribozyme fitness (log ratio)” value: at most -4.2 for the first, at most -4.2 for the second.

A30U U44G A52C C85G A107G G126C U134A A147G and A30G U45G G46C C76U C87U U135A cannot be ordered by “polymerase ribozyme fitness (log ratio)” value: at most -4.2 for the first, at most -4.2 for the second.

Going from A30U G86A to A29U G70U G71A C87U U90A A106U, the “polymerase ribozyme fitness (log ratio)” value falls from -3.95 to at most -4.2.

A29C U33C U44A G80U C85U C93U G136U and A30G C87U A110U C131A G136U G141U cannot be ordered by “polymerase ribozyme fitness (log ratio)” value: at most -4.2 for the first, at most -4.2 for the second.

A29U U44A G58C U61A G71U U77A U82G G140C and A29G C131U cannot be ordered by “polymerase ribozyme fitness (log ratio)” value: at most -4.2 for the first, at most -4.2 for the second.

A30U A73U G74U C76G U90G U139C and A30C U31C C32A G46C G50C G58U G88C U104C A122G cannot be ordered by “polymerase ribozyme fitness (log ratio)” value: at most -4.2 for the first, at most -4.2 for the second.

First: A30U A73G
Second: A29U A52C
The “polymerase ribozyme fitness (log ratio)” value of the first is higher: -3.78 for the first, at most -4.2 for the second.

A29U U77A G80A G92A U148C and A30G C108U U109A cannot be ordered by “polymerase ribozyme fitness (log ratio)” value: at most -4.2 for the first, at most -4.2 for the second.

A30C G48C A60G and A30G A40G U45G C79G A89C G94U U145A cannot be ordered by “polymerase ribozyme fitness (log ratio)” value: at most -4.2 for the first, at most -4.2 for the second.

Compared with A30U U55G C57A C93U, A30U G50C C96U U104C G136U is lower in “polymerase ribozyme fitness (log ratio)” value: -4.13 for the first, at most -4.2 for the second.

A29U G94U C149G and A30U A39G A98G C99U C105G cannot be ordered by “polymerase ribozyme fitness (log ratio)” value: at most -4.2 for the first, at most -4.2 for the second.

A30C A41G C76U G83A A89U G124A C131U C132G G143A U144A C149A and A30U G50A C57A C75U C85A G140U G143A cannot be ordered by “polymerase ribozyme fitness (log ratio)” value: at most -4.2 for the first, at most -4.2 for the second.

A30G C43G G83A and A30U G70A G143C cannot be ordered by “polymerase ribozyme fitness (log ratio)” value: at most -4.2 for the first, at most -4.2 for the second.

A30G A47U G50C G80C C96U C103U and A29G C35G U56G G68A G81A C99A C114A G143C cannot be ordered by “polymerase ribozyme fitness (log ratio)” value: at most -4.2 for the first, at most -4.2 for the second.

A29G A89U C96U A115C A121C G143U and A30U A60C G62A C76A C96G U127G G143C cannot be ordered by “polymerase ribozyme fitness (log ratio)” value: at most -4.2 for the first, at most -4.2 for the second.

Going from A30U U144A to A29G, the “polymerase ribozyme fitness (log ratio)” value rises from -3.67 to -1.81.

Compared with A29U, A29U A41C U61A G67U G86U G92A C93A G133C is lower in “polymerase ribozyme fitness (log ratio)” value: -3.4 for the first, at most -4.2 for the second.

A30U A66G G68A C76U G141U A142U and A30U G42A U55G C69A G126U A142C cannot be ordered by “polymerase ribozyme fitness (log ratio)” value: at most -4.2 for the first, at most -4.2 for the second.

A29U U55G C57U G67C A98G and A30U C54A C76A C87G G92A G143C cannot be ordered by “polymerase ribozyme fitness (log ratio)” value: at most -4.2 for the first, at most -4.2 for the second.

A29C U33G G34U G50C G84C G100C C108A A113U G141U and A30U C32G C54A C57G C99U A107G cannot be ordered by “polymerase ribozyme fitness (log ratio)” value: at most -4.2 for the first, at most -4.2 for the second.

A29U A39G C57G A66C C85G A91U and A30C C54U C69A G70A A137C cannot be ordered by “polymerase ribozyme fitness (log ratio)” value: at most -4.2 for the first, at most -4.2 for the second.

A29U U33C A52C G86A and A30G G50U C75A U78C G94C cannot be ordered by “polymerase ribozyme fitness (log ratio)” value: at most -4.2 for the first, at most -4.2 for the second.

A30C A41C G67C G83U G88U G141A and A30U A52C G67A G68A C87U A91G C95G U127C G143U U148G cannot be ordered by “polymerase ribozyme fitness (log ratio)” value: at most -4.2 for the first, at most -4.2 for the second.

A29G G94U A97G C149U and A30U A37U U53A C87U cannot be ordered by “polymerase ribozyme fitness (log ratio)” value: at most -4.2 for the first, at most -4.2 for the second.

A30C C96A U135A A137U and A30U G50C U56A A66C G141A cannot be ordered by “polymerase ribozyme fitness (log ratio)” value: at most -4.2 for the first, at most -4.2 for the second.

First: A29G C96A
Second: A29U A41C A52C C87U U102C G136A G143C U146A
The “polymerase ribozyme fitness (log ratio)” value of the first is higher: -3.46 for the first, at most -4.2 for the second.

A30G C76U C96U and A29U A60G C76A cannot be ordered by “polymerase ribozyme fitness (log ratio)” value: at most -4.2 for the first, at most -4.2 for the second.

A29U G94U U109A and A29G C93A A122G G124A cannot be ordered by “polymerase ribozyme fitness (log ratio)” value: at most -4.2 for the first, at most -4.2 for the second.

Going from A30C C38A C54U A60G G84U G141A G143A to A30G C76U, the “polymerase ribozyme fitness (log ratio)” value rises from at most -4.2 to -3.9.

A29G C36A A47C G50C C76A C85U C118A A121U U135G and A29U C51G G58C G71A A91G C95A C103G U151A G152A cannot be ordered by “polymerase ribozyme fitness (log ratio)” value: at most -4.2 for the first, at most -4.2 for the second.

With A30C C57G C63U G65U C96U A97U the “polymerase ribozyme fitness (log ratio)” value was at most -4.2.
